# Columns and labels:
# [1] = target: Jak2 (UniProt O60674); assay: phosphorylation enrichment, bacterial display (enrichment ratio); higher = better substrate or ligand; peptides without Tyr show the background
# [2] = test system: AncSZ; assay: as above
# [3] = target: Fes (UniProt P07332); assay: as above
# [4] = target: FGFR1 (UniProt P11362); assay: as above
# [5] = target: FGFR3 (UniProt P22607); assay: as above
# [6] = test system: c-Src; assay: as above
# [7] = target: Fyn (UniProt P06241); assay: as above
# [8] = target: EPHB2 (UniProt P29323); assay: as above
# [9] = test system: Fer (mouse); assay: as above
# [10] = target: EPHB1 (UniProt P54762); assay: as above
# [11] = target: Hck (UniProt P08631); assay: as above
# [12] = target: MERTK (UniProt Q12866); assay: as above
# [13] = test system: c-Abl (mouse); assay: as above
# [14] = target: SHP2-C SH2; assay: SH2 binding enrichment of the phosphorylated peptide, bacterial display (enrichment ratio); higher = better substrate or ligand; peptides without Tyr show the background
# [15] = target: c-Src SH2; assay: as above
# [16] = target: Grb2 SH2 (UniProt P62993); assay: as above
# 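Wherever SH2 binding enrichment of the phosphorylated peptide, bacterial display is given: peptide library displayed on the E. coli surface as eCPX fusions, selected cells deep-sequenced, score is each peptide's frequency after selection divided by its frequency in the input.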
# 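Wherever phosphorylation enrichment, bacterial display is given: 11-residue human phosphosite peptides and single-mutation variants displayed on the E. coli surface, counted by deep sequencing, each peptide's frequency after selection divided by its frequency in the unselected input library; frequency after pTyr selection over input frequency; kinase dosed for 20-30% of maximal phosphorylation in three min.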
# Chain of Fes (P07332 whole entry, looked up): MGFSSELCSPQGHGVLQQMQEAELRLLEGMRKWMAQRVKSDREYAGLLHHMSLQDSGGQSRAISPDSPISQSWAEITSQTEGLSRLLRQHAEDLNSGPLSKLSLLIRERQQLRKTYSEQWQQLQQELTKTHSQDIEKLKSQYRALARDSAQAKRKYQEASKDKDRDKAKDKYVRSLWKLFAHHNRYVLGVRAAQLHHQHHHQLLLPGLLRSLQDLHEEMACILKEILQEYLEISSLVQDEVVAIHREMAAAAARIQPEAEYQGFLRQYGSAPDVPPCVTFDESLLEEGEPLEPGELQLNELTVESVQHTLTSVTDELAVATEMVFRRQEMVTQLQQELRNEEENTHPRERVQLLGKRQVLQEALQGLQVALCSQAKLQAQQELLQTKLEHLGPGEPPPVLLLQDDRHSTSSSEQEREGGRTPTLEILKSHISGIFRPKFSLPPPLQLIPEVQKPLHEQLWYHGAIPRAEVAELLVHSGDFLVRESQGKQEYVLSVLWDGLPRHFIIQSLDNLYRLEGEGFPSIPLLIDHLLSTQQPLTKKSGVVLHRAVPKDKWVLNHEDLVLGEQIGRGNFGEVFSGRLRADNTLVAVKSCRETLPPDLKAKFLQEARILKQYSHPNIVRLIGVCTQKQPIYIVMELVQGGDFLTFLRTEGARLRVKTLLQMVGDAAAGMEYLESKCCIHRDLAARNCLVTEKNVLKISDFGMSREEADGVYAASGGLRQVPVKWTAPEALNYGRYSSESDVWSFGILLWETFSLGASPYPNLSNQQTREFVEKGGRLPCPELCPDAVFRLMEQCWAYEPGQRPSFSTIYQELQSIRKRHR
# Chain of Grb2 SH2 (P62993 whole entry, looked up, the tested form may be a part): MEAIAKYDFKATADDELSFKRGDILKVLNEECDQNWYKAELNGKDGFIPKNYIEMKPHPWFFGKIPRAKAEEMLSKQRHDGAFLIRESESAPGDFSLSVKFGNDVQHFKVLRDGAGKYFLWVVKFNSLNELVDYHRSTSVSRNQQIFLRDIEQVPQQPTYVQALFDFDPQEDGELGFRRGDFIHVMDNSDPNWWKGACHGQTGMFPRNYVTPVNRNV
# Chain of EPHB2 (P29323 whole entry, looked up): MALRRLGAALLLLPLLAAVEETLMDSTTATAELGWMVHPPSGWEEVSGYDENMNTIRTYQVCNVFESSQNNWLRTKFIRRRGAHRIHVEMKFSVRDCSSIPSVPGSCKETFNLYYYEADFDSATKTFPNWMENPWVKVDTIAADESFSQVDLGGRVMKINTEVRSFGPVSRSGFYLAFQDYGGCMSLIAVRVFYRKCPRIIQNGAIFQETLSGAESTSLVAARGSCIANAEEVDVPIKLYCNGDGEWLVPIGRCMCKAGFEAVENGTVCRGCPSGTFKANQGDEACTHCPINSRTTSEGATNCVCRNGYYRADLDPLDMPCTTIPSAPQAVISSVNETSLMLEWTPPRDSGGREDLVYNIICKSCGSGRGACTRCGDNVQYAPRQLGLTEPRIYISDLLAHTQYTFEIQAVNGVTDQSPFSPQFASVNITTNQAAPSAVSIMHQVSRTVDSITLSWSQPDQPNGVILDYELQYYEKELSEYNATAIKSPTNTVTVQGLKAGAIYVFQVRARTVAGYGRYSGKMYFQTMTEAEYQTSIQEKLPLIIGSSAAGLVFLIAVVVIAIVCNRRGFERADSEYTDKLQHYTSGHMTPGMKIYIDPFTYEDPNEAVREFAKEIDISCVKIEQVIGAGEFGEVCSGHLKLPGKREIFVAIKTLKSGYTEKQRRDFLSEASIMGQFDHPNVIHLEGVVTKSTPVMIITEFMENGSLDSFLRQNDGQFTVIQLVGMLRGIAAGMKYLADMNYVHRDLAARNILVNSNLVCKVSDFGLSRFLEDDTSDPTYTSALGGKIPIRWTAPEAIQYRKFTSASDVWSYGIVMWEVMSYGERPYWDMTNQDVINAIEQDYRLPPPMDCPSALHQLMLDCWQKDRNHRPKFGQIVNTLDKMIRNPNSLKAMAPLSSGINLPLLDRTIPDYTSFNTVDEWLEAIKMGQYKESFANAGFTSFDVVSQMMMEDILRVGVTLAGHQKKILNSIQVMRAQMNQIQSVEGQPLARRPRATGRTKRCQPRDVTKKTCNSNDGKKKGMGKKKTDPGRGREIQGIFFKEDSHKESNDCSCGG
# Chain of Fyn (P06241 whole entry, looked up): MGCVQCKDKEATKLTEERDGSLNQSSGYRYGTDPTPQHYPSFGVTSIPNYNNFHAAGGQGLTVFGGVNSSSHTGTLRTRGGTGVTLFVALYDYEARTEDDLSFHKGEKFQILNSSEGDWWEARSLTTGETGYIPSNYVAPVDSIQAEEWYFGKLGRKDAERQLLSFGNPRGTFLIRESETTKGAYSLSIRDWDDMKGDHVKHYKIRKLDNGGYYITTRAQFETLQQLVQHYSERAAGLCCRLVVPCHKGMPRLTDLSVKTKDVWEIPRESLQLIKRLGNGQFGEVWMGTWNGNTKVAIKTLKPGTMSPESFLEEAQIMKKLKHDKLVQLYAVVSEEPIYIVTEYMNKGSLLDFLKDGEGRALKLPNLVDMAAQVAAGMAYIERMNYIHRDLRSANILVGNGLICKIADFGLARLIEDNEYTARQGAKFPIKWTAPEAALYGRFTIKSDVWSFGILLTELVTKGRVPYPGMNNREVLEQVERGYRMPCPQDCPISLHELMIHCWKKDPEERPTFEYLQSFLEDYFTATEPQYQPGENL
# Chain of EPHB1 (P54762 whole entry, looked up): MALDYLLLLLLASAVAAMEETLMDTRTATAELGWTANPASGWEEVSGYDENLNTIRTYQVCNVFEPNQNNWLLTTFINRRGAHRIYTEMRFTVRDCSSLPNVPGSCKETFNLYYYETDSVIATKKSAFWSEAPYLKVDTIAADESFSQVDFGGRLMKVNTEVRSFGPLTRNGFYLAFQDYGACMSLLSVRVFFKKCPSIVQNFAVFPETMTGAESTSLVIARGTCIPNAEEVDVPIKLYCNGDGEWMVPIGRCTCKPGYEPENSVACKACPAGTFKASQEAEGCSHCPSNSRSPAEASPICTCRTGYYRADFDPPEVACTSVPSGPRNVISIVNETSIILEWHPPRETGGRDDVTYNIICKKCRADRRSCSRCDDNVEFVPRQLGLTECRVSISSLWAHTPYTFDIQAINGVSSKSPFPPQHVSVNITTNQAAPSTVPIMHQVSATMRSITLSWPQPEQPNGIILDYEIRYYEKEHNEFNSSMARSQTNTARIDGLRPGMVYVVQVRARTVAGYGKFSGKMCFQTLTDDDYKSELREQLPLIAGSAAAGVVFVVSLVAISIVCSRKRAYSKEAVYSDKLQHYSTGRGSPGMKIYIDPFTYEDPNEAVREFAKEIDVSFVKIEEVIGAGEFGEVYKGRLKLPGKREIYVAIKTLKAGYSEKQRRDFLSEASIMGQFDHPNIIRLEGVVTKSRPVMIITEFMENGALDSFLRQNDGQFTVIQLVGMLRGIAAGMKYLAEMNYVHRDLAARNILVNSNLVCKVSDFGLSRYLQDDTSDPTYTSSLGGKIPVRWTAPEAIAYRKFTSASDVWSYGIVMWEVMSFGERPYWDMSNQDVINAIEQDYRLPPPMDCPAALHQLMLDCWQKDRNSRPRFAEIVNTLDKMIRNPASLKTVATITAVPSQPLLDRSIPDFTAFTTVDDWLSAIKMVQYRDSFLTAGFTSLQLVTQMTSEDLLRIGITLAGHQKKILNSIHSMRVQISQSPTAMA
# Chain of Hck (P08631 whole entry, looked up): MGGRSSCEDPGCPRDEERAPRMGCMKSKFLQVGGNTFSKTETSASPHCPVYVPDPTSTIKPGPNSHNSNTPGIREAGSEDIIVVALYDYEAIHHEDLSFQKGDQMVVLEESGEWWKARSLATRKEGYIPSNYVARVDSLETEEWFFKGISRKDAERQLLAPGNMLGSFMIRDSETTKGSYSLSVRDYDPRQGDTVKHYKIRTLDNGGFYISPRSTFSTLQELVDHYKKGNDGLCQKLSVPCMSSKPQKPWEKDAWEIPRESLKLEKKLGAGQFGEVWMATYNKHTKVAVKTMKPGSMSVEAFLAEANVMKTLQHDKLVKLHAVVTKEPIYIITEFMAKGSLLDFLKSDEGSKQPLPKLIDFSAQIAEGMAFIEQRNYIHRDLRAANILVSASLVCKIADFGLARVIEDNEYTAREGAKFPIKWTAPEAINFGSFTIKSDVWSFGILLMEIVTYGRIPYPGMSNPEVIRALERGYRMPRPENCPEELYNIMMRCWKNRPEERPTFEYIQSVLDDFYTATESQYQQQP
# Chain of FGFR1 (P11362 whole entry, looked up): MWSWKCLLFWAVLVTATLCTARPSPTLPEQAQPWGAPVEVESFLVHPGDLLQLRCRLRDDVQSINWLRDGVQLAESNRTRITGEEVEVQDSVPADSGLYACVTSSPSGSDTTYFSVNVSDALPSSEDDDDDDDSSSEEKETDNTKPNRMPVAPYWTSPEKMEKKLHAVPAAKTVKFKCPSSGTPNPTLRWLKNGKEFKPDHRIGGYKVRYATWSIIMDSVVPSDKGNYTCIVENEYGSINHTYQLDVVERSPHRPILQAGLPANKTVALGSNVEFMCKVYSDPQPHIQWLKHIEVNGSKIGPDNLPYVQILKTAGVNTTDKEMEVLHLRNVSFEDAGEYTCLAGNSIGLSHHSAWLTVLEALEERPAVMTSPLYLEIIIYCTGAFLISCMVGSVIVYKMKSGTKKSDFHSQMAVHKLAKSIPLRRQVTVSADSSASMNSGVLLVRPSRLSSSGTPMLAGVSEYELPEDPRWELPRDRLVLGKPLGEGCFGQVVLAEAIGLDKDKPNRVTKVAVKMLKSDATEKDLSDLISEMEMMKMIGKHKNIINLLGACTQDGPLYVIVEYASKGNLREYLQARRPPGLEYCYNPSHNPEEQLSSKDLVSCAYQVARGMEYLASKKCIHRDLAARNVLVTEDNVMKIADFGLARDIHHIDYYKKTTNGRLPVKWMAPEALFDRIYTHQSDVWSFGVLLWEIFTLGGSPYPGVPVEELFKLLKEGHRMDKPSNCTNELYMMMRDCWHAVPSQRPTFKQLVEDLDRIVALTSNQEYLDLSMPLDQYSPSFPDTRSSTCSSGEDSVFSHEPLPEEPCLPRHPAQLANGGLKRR
Sequence,phosphorylation enrichment [1],phosphorylation enrichment [2],phosphorylation enrichment [3],phosphorylation enrichment [4],phosphorylation enrichment [5],phosphorylation enrichment [6],phosphorylation enrichment [7],phosphorylation enrichment [8],phosphorylation enrichment [9],phosphorylation enrichment [10],phosphorylation enrichment [11],phosphorylation enrichment [12],phosphorylation enrichment [13],SH2 binding enrichment [14],SH2 binding enrichment [15],SH2 binding enrichment [16]
EKQVAYCPSGK [ROS1_Y2323],0.638,0.634,0.795,0.49,0.505,0.358,0.383,0.445,0.32,0.413,0.442,0.412,0.567,0.844,0.464,0.879
LYSNAYLSDLA [ALDH1A1_Y119_N121S],0.945,1.68,1.01,1.14,1.23,1.96,3.58,1.45,7.25,2.99,3.5,8.43,0.618,0.782,1.11,0.94
GDEAIYATVAG [NRTKtide_2018],0.803,1.59,2.64,3.87,3,7.59,10.7,15.5,13.4,12.1,9.26,9.16,22.1,0.812,0.612,1.01
RHFTTYDTNGR [CLCA1_Y665_Y661H],0.844,0.93,0.938,0.808,0.755,0.876,1.01,0.97,0.594,0.609,0.835,0.707,0.618,0.642,0.494,0.716
DNKALYDICFR [TUBB3_Y208_E205K],1.18,1.38,1.26,0.612,0.853,3.21,2.6,2.23,4.5,2.95,4.34,7.18,1.41,0.641,0.541,0.739
DFSLKYATDIP [APC_Y1183_YF],0.897,0.914,1.08,0.592,0.668,0.378,0.524,0.619,0.536,0.606,0.47,0.374,0.572,0.737,0.457,0.781
ESLRSYDVMDV [KCNQ2_Y562_P561S],0.921,1.03,1.28,0.581,0.993,0.509,0.556,0.714,0.555,0.663,0.616,0.523,0.817,0.473,9.05,0.712
CGTPDYIDPEI [PRKCG_Y521_A523D],1.31,1.58,1.41,2.28,1.85,0.481,0.581,0.725,0.531,1.1,0.7,0.454,0.813,0.52,0.461,0.814
QAPPVYLDVLG [NTRK1_Y791],1.16,1.17,1.45,2.33,1.49,0.727,1.01,1.34,0.69,4.2,1.02,0.901,0.954,0.765,0.723,1.03
ELSDGYWVVSN [TPP1_Y459_A454E],1.63,1.39,1.34,1.3,1.21,0.588,0.507,0.664,0.528,0.559,0.647,0.396,0.778,0.616,7.16,0.636
PEVRRCVLPLN [RPE65_Y368_Y368C],0.927,0.906,1.14,0.495,0.774,0.586,0.366,0.487,0.644,0.673,0.48,0.458,0.871,0.633,0.548,0.926
SLIERYEPSET [PLCD1_Y258],0.966,1.07,1.1,0.661,0.678,0.497,0.502,0.602,0.574,0.742,0.54,0.727,0.717,0.62,0.759,1
IIGNGYYFHVF [MYBPC3_Y1135_R1138H],1.19,0.946,1.22,0.587,0.803,0.362,0.349,0.559,0.491,0.518,0.396,0.288,0.667,0.81,0.542,0.834
SNSAAYSGSVA [PDLIM5_Y382_T381A],0.636,0.512,0.566,0.33,0.421,0.409,0.404,0.393,0.343,0.398,0.354,0.381,0.697,0.559,0.481,0.774
PTTKTYFLHFD [HBA1_Y43_P45L],1.98,1.66,1.79,3.23,2.62,0.695,0.813,1.14,0.532,1.34,0.816,0.844,1.51,1.35,0.985,1.36
CDDGKYVYVVT [RPS6KA3_Y488_Y483C],1.42,1.48,1.6,0.834,1.15,0.863,0.84,0.777,0.798,0.896,0.75,0.525,1.05,0.548,0.443,0.75
FGDTPYIPFRD [CDC14C_Y132],0.646,0.764,0.905,0.522,0.662,0.781,0.55,0.458,0.542,0.495,0.54,0.445,0.589,0.757,0.602,0.809

Sequence,phosphorylation enrichment [1],phosphorylation enrichment [2],phosphorylation enrichment [3],phosphorylation enrichment [4],phosphorylation enrichment [5],phosphorylation enrichment [6],phosphorylation enrichment [7],phosphorylation enrichment [8],phosphorylation enrichment [9],phosphorylation enrichment [10],phosphorylation enrichment [11],phosphorylation enrichment [12],phosphorylation enrichment [13],SH2 binding enrichment [14],SH2 binding enrichment [15],SH2 binding enrichment [16]
TQTPPYVKKHR [LARP1B_Y457_P462R],1.04,0.774,1.23,0.683,1.22,0.624,0.531,0.545,0.684,0.575,0.649,0.541,1.18,0.956,0.954,1.18
RNFVHYVQGLK [VWF_Y1400_R1399H],0.605,0.875,0.833,0.429,0.52,0.583,0.613,0.515,0.349,0.511,0.369,0.544,0.669,1.96,0.7,1.14
LEISPYMLSGR [LRRK2_Y1718],0.64,0.852,1.28,0.718,0.652,0.929,1.44,1.1,0.806,1.02,0.932,0.588,0.491,0.722,0.781,0.9
PESIMYWKFTT [NTRK3_Y744_R745W],2.76,2.52,2.81,1.09,1.55,3.1,1.85,1.22,1.53,0.92,1.96,0.851,2.36,1.21,0.487,0.767
TLLSAYQIPRT [GAB2_Y324_P320L],0.68,0.729,0.74,0.418,0.531,0.435,0.387,0.42,0.545,0.55,0.533,1.18,9.51,0.73,0.786,0.91
LARDMDDKEFF [MET_Y1230_Y1230D_YF],0.708,0.895,0.997,0.453,1.08,0.498,0.342,0.53,0.428,0.451,0.456,0.523,0.464,0.968,0.508,1.11
PNATLYKMTSI [SERPINA7_Y40_S43T],1.16,0.883,1.5,0.86,0.668,1.04,0.604,1.02,0.477,0.642,0.636,0.918,1.3,0.684,0.272,0.768
IWGKKYPTCNS [PTPRZ1_Y53_N48I],0.667,0.697,0.776,0.432,0.607,0.397,0.369,0.491,0.518,0.441,0.406,0.407,0.628,0.89,0.846,1.2
AFQGKYTPSGQ [ALDOA_Y343_C339Y_YF],0.547,0.388,0.446,0.309,0.328,0.298,0.273,0.276,0.253,0.376,0.266,0.346,0.432,0.803,0.592,0.759
SIKHKYVTALF [KCNH2_Y611_D609H_YF],0.694,0.674,0.622,0.354,0.511,0.402,0.377,0.474,0.416,0.471,0.419,0.4,0.524,0.901,0.473,0.78
DEWFLYKMRDI [CPS1_Y879_K875E],1.63,1.25,1.56,0.503,0.878,0.816,0.486,0.585,0.586,0.751,0.615,0.4,0.935,0.829,0.417,0.653
LIEQAYDNLHE [PRPF8_Y871_P874L],0.593,1.44,1.38,0.6,1.05,0.325,0.714,0.877,0.821,0.623,1.15,0.426,0.479,0.626,5.09,0.736
MHRRQYELLGG [GNAS_Y391_L388R],0.48,0.577,0.715,0.5,0.425,0.336,0.371,0.426,0.307,0.28,0.409,0.391,0.416,0.349,2.1,0.601
IHETTYNSIKK [ACTA1_Y281_M285K],0.532,0.449,0.689,0.467,0.482,0.442,0.391,0.403,0.35,0.382,0.69,0.369,0.455,1.63,1.05,0.673
EAEPYYRSLRD [NPHS1_Y1139],0.785,0.929,0.911,0.505,0.585,0.601,0.479,0.594,0.428,0.487,0.521,0.467,0.709,0.791,0.775,0.765
AVISVYDLVAV [PSEN1_Y256],0.82,1.24,1.2,0.429,0.577,4.51,6.35,4.92,13,6.18,6.2,6.38,0.753,1.03,1.39,1.03

# Reference: the supplement of paper PMC10065799, “High-throughput profiling of sequence recognition by tyrosine kinases and SH2 domains using bacterial peptide display” (eLife, 2023)
